Data on 1 molecule can be found in paper PMC10765524.

The assay concerns the target PP2A:B55 holoenzyme (PP2Aa, B55, PP2Ac) (UniProt P30153).

*1 amine or outer side, *2 acyl side, *3 side chain or, on linkers, in order; H or OH if unused. Where no end group is shown, it is not given here. [ ]: non-standard residue; d: D form. tpS = thiophosphoserine, O=C([C@H](COP(O)(O)=S)N[*:1])[*:2]

PP2A:B55 holoenzyme (PP2Aa, B55, PP2Ac), sequence (P30153 9-589, chain 1 of 3): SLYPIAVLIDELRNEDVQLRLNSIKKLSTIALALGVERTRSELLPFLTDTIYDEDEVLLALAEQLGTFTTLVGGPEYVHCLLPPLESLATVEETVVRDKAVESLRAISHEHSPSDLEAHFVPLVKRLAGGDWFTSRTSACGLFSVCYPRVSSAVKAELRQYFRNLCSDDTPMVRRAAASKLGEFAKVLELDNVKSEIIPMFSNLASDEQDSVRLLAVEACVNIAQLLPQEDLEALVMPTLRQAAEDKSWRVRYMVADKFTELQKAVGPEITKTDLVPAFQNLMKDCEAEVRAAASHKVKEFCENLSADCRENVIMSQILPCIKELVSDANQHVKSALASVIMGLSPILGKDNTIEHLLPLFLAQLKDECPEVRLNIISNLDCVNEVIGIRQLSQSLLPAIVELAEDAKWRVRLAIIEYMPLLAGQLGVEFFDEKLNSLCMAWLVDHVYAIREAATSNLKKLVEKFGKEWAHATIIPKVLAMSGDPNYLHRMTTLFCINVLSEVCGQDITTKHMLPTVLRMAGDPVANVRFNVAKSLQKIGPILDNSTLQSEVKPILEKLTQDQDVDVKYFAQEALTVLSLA
PP2A:B55 holoenzyme (PP2Aa, B55, PP2Ac), sequence (P63151 whole entry, chain 2 of 3, further chain): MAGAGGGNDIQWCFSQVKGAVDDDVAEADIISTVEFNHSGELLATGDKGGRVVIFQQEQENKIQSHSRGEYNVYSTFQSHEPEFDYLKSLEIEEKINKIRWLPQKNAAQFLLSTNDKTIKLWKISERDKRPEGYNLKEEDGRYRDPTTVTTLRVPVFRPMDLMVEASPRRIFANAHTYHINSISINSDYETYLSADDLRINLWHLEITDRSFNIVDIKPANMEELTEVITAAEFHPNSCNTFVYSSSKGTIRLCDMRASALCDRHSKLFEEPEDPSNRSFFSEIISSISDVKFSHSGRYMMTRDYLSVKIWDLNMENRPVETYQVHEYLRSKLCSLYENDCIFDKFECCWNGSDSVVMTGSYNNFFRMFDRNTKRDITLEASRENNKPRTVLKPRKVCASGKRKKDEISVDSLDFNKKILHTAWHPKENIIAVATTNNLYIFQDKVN
PP2A:B55 holoenzyme (PP2Aa, B55, PP2Ac), sequence (P67775 whole entry, chain 3 of 3, further chain): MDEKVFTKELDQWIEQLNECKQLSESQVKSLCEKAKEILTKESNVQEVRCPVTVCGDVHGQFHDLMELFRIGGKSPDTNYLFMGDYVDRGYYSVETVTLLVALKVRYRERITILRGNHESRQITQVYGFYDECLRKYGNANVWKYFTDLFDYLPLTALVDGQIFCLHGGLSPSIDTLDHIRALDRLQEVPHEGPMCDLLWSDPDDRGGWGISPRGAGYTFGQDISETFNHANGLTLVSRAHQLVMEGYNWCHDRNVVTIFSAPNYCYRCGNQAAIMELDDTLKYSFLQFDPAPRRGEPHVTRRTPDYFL

B1: tpARPP19_(19–75) (domain or fragment)
chain: DKVTSPEKAEEAKLKARYPHLGQKPGGSDFLRKRLQKGQKYFD[tpS]GDYNMAKAKMKNK
modifications: also: thiophosphorylated, site not given here
B1 displayed an IC50 of PP2A:B55 inhibition (DiFMUP), against tpARPP19 above 50 fold.
